# Results from patent US20200332015A1 (NAMAB THERAPEUTICS, published 2020).
# Changes are numbered by the printed parent chain.
# T1: mouse Fc-tagged mouse CD137 (R&D Systems, cat. 937-4B-050) (mouse, UniProt P20334 24-187)
# T1 construct: also called mouse CD137-Fc chimeric protein
# T1 sequence (looked up): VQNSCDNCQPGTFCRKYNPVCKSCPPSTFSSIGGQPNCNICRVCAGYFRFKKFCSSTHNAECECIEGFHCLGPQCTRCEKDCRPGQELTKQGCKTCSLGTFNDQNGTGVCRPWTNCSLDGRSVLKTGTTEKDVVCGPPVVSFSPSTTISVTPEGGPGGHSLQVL
# B1: PRO1123 (38-02-A04 sc05 IF scDb-i/33_03_G02 sc01 scDb-o) (bispecific antibody)
# chain: DIQMTQSPSSLSASVGDRVTITCQASQSINDYLAWYQQKPGKAPKLLIYKASTLASGVPSRFSGSGSGTDFTLTISSLQPEDFATYYCQQGYIITDIDNVFGTGTKVTVLGGGGGSQVQLQESGPGLVKPSETLSLTCKVSGFSFSNSYWICWVRQPPGKGLEWIGCTFVGSSDSTYYANWAKGRVTISVDSSKNQVSLKLSSVTAADTAVYFCARHPSDAVYGYANNLWGQGTLVTVSSGGGGSGGGGSGGGGSGGGGSIQMTQSPSSLSASVGDRVTITCQASQSINNVLAWYQQKPGKPPKLLIYRASTLASGVPSRFSGSGSGTDFTLTISSLQPEDFATYYCQSSYGNYGDFGTGTKVTVLGGGGGSQVQLQESGPGLVKPSETLSLTCKVSGFSFSSGYDMCWIRQPPGKGLEWIGCVVAGSVDITYYASWAKGRVTISVDSSKNQFSLKLSSVTAADTAVYYCARKDAYSDAFNLWGQGTLVTVSS
# notes: scDb; also called PR01123
# B2: PRO1126 (38-02-A04 sc01 scDb-i/33_03_G02 sc03 Full scDb-o) (bispecific antibody)
# chain: DFQLTQSPSSLSASVGDRVTITCQASQSINDYLAWYQQKPGKSPKLLIYKASTLASGVPSRFSGSGSGTDFTLTISSLQPEDFATYYCQQGYIITDIDNVFGTGTKVTVLGGGGGSQVQLQESGPGLVKPSETLSLTCKVSGFSFSNSYWICWIRQPPGKGLEWIGCTFVGSSDSTYYANWAKGRVTISVDSSKNQFSLKLSSVTAADTAVYYCARHPSDAVYGYANNLWGQGTLVTVSSGGGGSGGGGSGGGGSGGGGSIQMTQSPSSLSASVGDRVTITCQASQSINNVLAWYQQKPGKAPKLLIYRASTLASGVPSRFSGSGSGTDFTLTISSLQPEDFATYYCQSSYGNYGDFGTGTKVTVLGGGGGSQSQLQESGPGLVKPSETLSLTCKASGFSFSSGYDMCWVRQPPGKGLEWIACVVAGSVDITYYASWAKGRVTISKDSSKNQVSLKLSSVTAADTAVYFCARKDAYSDAFNLWGQGTLVTVSS
# notes: scDb; also called PR01126
# B3: PRO963 (38_02_A04 sc01 scDb-i/33-03-G02 sc01 scDb-o/19-01-H04-sc03 scFv) (other)
# chain: DIQMTQSPSSLSASVGDRVTITCQASQSINDYLAWYQQKPGKAPKLLIYKASTLASGVPSRFSGSGSGTDFTLTISSLQPEDFATYYCQQGYIITDIDNVFGTGTKVTVLGGGGGSQVQLQESGPGLVKPSETLSLTCKVSGFSFSNSYWICWIRQPPGKGLEWIGCTFVGSSDSTYYANWAKGRVTISVDSSKNQFSLKLSSVTAADTAVYYCARHPSDAVYGYANNLWGQGTLVTVSSGGGGSGGGGSGGGGSGGGGSIQMTQSPSSLSASVGDRVTITCQASQSINNVLAWYQQKPGKAPKLLIYRASTLASGVPSRFSGSGSGTDFTLTISSLQPEDFATYYCQSSYGNYGDFGTGTKVTVLGGGGGSQVQLQESGPGLVKPSETLSLTCKVSGFSFSSGYDMCWIRQPPGKGLEWIGCVVAGSVDITYYASWAKGRVTISVDSSKNQFSLKLSSVTAADTAVYYCARKDAYSDAFNLWGQGTLVTVSSGGGGSGGGGSIQMTQSPSSLSASVGDRVTITCQSSESVYSNNQLSWYQQKPGQPPKLLIYDASDLASGVPSRFSGSGSGTDFTLTISSLQPEDFATYYCAGGFSSSSDTAFGGGTKLTVLGGGGGSGGGGSGGGGSGGGGSEVQLVESGGGLVQPGGSLRLSCAASGFSLSSNAMGWVRQAPGKGLEYIGIISVGGFTYYASWAKGRFTISRDNSKNTVYLQMNSLRAEDTATYFCARDRHGGDSSGAFYLWGQGTLVTVSS
# notes: Trispecific scDb-scFv (PDL1 x CD137 x SA); also called PRO096 (= PRO1051)
# B4: PRO1181 (38-02-A04-sc05, IF graft, VH4, scFv) (scFv)
# scFv: DIQMTQSPSSLSASVGDRVTITCQASQSINNVLAWYQQKPGKPPKLLIYRASTLASGVPSRFSGSGSGTDFTLTISSLQPEDFATYYCQSSYGNYGDFGTGTKVTVLGGGGGSGGGGSGGGGSGGGGSQVQLQESGPGLVKPSETLSLTCKVSGFSFSNSYWICWVRQPPGKGLEWIGCTFVGSSDSTYYANWAKGRVTISVDSSKNQVSLKLSSVTAADTAVYFCARHPSDAVYGYANNLWGQGTLVTVSS
# notes: VL-linker-VH
# B5: PRO1182 (38-02-A04-sc06, FULL graft, VH4, scFv) (scFv)
# scFv: B4 scFv with I2L, V152A, V202K
# notes: VL-linker-VH
# What was measured:
# [1] = target: T2, human CD137 expressed on Jurkat cells (human, UniProt Q07011 24-255); assay: cell-based or functional assay
# [2] = target: human PDL1-Fc chimeric protein (human, UniProt Q9NZQ7 19-238, limits assumed); assay: SPR T200, antigen-Fc captured, molecule as analyte
# Method: (§1) Affinity to PDL1 of the different species was determined by SPR measurements using a Biacore T200 device (GE Healthcare). An antibody specific for the Fc region of human IgGs was immobilized on a sensor chip (CM5 sensor chip, GE Healthcare) by amine-coupling. For all formats, with the exception of the Fc containing Morrison formats, PDL1-Fc chimeric protein from different species were captured by the immobilized antibody. Three-fold serial dilutions of the molecules specific for PDL1 (0.12-90 nM) were injected into the flow cells for three minutes and dissociation was monitored for 10 minutes. After each injection cycle, surfaces were regenerated with one injection of a 3 M MgCl₂ solution. The apparent dissociation (kd) and association (kₐ) rate constants and the apparent dissociation equilibrium constant (KD) were calculated using one-to-one Langmuir binding model. Affinity to CD137 of the different species was determined using the identical setup as for PDL1 with the exception that CD137-Fc chimeric proteins from different species were captured by the immobilized antibody.
# [3] = target: T1, mouse Fc-tagged mouse CD137 (R&D …); assay: SPR T200, antigen-Fc captured, molecule as analyte
# Method: as §1
# [4] = target: T3, Fc tagged human CD137 (R&D Systems, cat. 838-4B-100) (human, UniProt Q07011 24-186); assay: SPR T200, antigen-Fc captured, molecule as analyte
# T3 construct: also called CD137 Fc chimera; human CD137-Fc chimeric protein
# Method: as §1
# [5] = target: T4, cynomolgus monkey Fc-tagged CD137 (R&D Systems, cat. 9324-4B-100) (cynomolgus monkey, UniProt A9YYE7 24-186); assay: SPR T200, antigen-Fc captured, molecule as analyte
# T4 construct: also called cynomolgus CD137-Fc chimeric protein
# Method: as §1
# [6] = target: T2, human CD137 expressed on Jurkat cells; assay: cell-based or functional assay; remark: listed apart in the source
# [7] = target: T2, human CD137 expressed on Jurkat cells; assay: cell-based or functional assay; remark: listed apart in the source
# [8] = target: T2, human CD137 expressed on Jurkat cells; assay: cell-based or functional assay; remark: listed apart in the source
# human serum albumin = target: T5, human serum albumin (human, UniProt P02768 25-609); assay: SPR T200, SA coupled to chip, pH 5.5
# T5 construct: also called human SA; HSA
# Method: (§2) Affinity of molecules to serum albumin (SA) of the different species was determined by SPR measurements using a Biacore T200 device (GE Healthcare). SA was directly coupled to a CM5 sensor chip (GE Healthcare) using amine coupling chemistry. […] The assay was run in a 1×PBS-Tween buffer at pH 5.5.
# mouse serum albumin = target: T6, mouse serum albumin (mouse, UniProt P07724 25-608); assay: SPR T200, SA coupled to chip, pH 5.5
# T6 construct: also called mouse SA; MSA
# Method: as §2
# [9] = target: T4, cynomolgus monkey Fc-tagged CD137 (R&D …); assay: SPR T200, Fc-tagged antigen captured, scFv analyte
# Method: (§3) Affinity of the humanized scFvs to human CD137 was determined by SPR analysis on a T200 device (Biacore, GE Healthcare). […] After each analyte injection cycle, the anti-human Fc-specific IgG was regenerated and new antigen was captured. The scFvs were injected as analyte using a dose response multi-cycle kinetic assay over the captured CD137 with concentrations of the analyte ranging from 0.19 to 45 nM (three-fold dilutions steps) diluted in running buffer. Association and dissociation time were set to 300 s and 720 s, respectively. Obtained sensorgrams were fitted using the 1:1 binding model.
# Cross-reactivity to cynomolgus CD137 was measured with cynomolgus monkey Fc-tagged CD137 (R&D Systems, cat. 9324-4B-100) in a similar assay as used to measure binding to human CD137.
# [10] = target: T3, Fc tagged human CD137 (R&D Systems, …); assay: SPR T200, Fc-tagged antigen captured, scFv analyte
# Method: as §3
# T4 sequence (A9YYE7 entry or part of it): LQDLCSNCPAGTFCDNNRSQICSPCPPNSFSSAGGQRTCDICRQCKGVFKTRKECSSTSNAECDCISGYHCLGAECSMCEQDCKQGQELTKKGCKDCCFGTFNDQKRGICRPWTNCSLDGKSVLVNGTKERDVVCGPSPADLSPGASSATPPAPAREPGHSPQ
Binder,"EC50 NFkB-luciferase, HCC827 without IFNy [1] [ng/mL]","Top of curve fit, NFkB-luciferase, HCC827 without IFNy [1]",Kd [2] [nM],koff [2] [s⁻¹],kon [2] [M⁻¹ s⁻¹],Kd [4] [nM],koff [4] [s⁻¹],kon [4] [M⁻¹ s⁻¹],"max. activation, HCC827 +IFNg [6] [%]","max. activation, HCC827 -IFNg [6] [%]","max. activation, NF-kB reporter gene, CHO-PD-L1 [6] [%]","rel. IC50 (urelumab/test), HCC827 +IFNg [6] [ratio]","rel. IC50 (urelumab/test), HCC827 -IFNg [6] [ratio]","rel. IC50 (urelumab/test), NF-kB reporter gene, CHO-PD-L1 [6] [ratio]","EC50 NFkB-luciferase, CHO-PDL1 cells [7] [ng/mL]","Top of curve fit, NFkB-luciferase, CHO-PDL1 cells [7]","EC50 NFkB-luciferase, HCC827 with IFNy [8] [ng/mL]","Top of curve fit, NFkB-luciferase, HCC827 with IFNy [8]",Kd [9] [nM],koff [9] [s⁻¹],also measured
B1,16.1,123,0.075,0.00017,2.3e+06,0.88,0.00027,310000,154,123,219,12.2,6.82,18.1,5.75,219,11.9,154,–,–,Kd [3]: 410 nM; koff [3]: 0.027 s⁻¹; kon [3]: 65000 M⁻¹ s⁻¹; Kd [5]: 1.3 nM; koff [5]: 0.00033 s⁻¹; kon [5]: 260000 M⁻¹ s⁻¹
B2,6.97,135,≤ 0.0035,< 1e-05,2.8e+06,3.5,0.00075,210000,208,135,242,19.7,16,14.4,6,242,5.48,208,–,–,binding result [3]: no binding (tested: 0.12-90 nM)
B3,–,–,0.066,0.00013,2e+06,3,0.00062,200000,–,–,–,–,–,–,–,–,–,–,–,–,Kd (human serum albumin): 2.8 nM; koff (human serum albumin): 0.0003 s⁻¹; kon (human serum albumin): 110000 M⁻¹ s⁻¹; binding result (mouse serum albumin): no binding
B4,–,–,–,–,–,–,–,–,–,–,–,–,–,–,–,–,–,–,1.36,0.00053,kon [9]: 388000 M⁻¹ s⁻¹; Kd [10]: 1.37 nM; koff [10]: 0.00048 s⁻¹; kon [10]: 350000 M⁻¹ s⁻¹
B5,–,–,–,–,–,–,–,–,–,–,–,–,–,–,–,–,–,–,0.0142,1.83e-05,kon [9]: 1.29e+06 M⁻¹ s⁻¹; Kd [10]: 0.0179 nM; koff [10]: 2.58e-05 s⁻¹; kon [10]: 1.44e+06 M⁻¹ s⁻¹
